From paper PMC2859980

B1: tyrosinase: z-vad-fmk, R402Q tyrosinase cells (protein)
parent chain: MLLAVLYCLLWSFQTSAGHFPRACVSSKNLMEKECCPPWSGDRSPCGQLSGRGSCQNILLSNAPLGPQFPFTGVDDRESWPSVFYNRTCQCSGNFMGFNCGNCKFGFWGPNCTERRLLVRRNIFDLSAPEKDKFFAYLTLAKHTISSDYVIPIGTYGQMKNGSTPMFNDINIYDLFVWMHYYVSMDALLGGSEIWRDIDFAHEAPAFLPWHRLFLLRWEQEIQKLTGDENFTIPYWDWRDAEKCDICTDEYMGGQHPTNPNLLSPASFFSSWQIVCSRLEEYNSHQSLCNGTPEGPLRRNPGNHDKSRTPRLPSSADVEFCLSLTQYESGSMDKAANFSFRNTLEGFASPLTGIADASQSSMHNALHIYMNGTMSQVQGSANDPIFLLHHAFVDSIFEQWLQRHRPLQEVYPEANAPIGHNRESYMVPFIPLYRNGDFFISSKDLGYDYSYLQDSDPDSFQDYIKSYLEQASRIWSWLLGAAMVGAVLTALLAGLVSLLCRHKRKQLPEEKQPLLMEKEDYHSLYQSHL
B2: tyrosinase: z-vad-fmk, N371D R402Q tyrosinase cells (protein)
parent chain: MLLAVLYCLLWSFQTSAGHFPRACVSSKNLMEKECCPPWSGDRSPCGQLSGRGSCQNILLSNAPLGPQFPFTGVDDRESWPSVFYNRTCQCSGNFMGFNCGNCKFGFWGPNCTERRLLVRRNIFDLSAPEKDKFFAYLTLAKHTISSDYVIPIGTYGQMKNGSTPMFNDINIYDLFVWMHYYVSMDALLGGSEIWRDIDFAHEAPAFLPWHRLFLLRWEQEIQKLTGDENFTIPYWDWRDAEKCDICTDEYMGGQHPTNPNLLSPASFFSSWQIVCSRLEEYNSHQSLCNGTPEGPLRRNPGNHDKSRTPRLPSSADVEFCLSLTQYESGSMDKAANFSFRNTLEGFASPLTGIADASQSSMHNALHIYMDGTMSQVQGSANDPIFLLHHAFVDSIFEQWLQRHRPLQEVYPEANAPIGHNRESYMVPFIPLYRNGDFFISSKDLGYDYSYLQDSDPDSFQDYIKSYLEQASRIWSWLLGAAMVGAVLTALLAGLVSLLCRHKRKQLPEEKQPLLMEKEDYHSLYQSHL
B3: tyrosinase: z-vad-fmk (protein)
parent chain: MLLAVLYCLLWSFQTSAGHFPRACVSSKNLMEKECCPPWSGDRSPCGQLSGRGSCQNILLSNAPLGPQFPFTGVDDRESWPSVFYNRTCQCSGNFMGFNCGNCKFGFWGPNCTERRLLVRRNIFDLSAPEKDKFFAYLTLAKHTISSDYVIPIGTYGQMKNGSTPMFNDINIYDLFVWMHYYVSMDALLGGSEIWRDIDFAHEAPAFLPWHRLFLLRWEQEIQKLTGDENFTIPYWDWRDAEKCDICTDEYMGGQHPTNPNLLSPASFFSSWQIVCSRLEEYNSHQSLCNGTPEGPLRRNPGNHDKSRTPRLPSSADVEFCLSLTQYESGSMDKAANFSFRNTLEGFASPLTGIADASQSSMHNALHIYMNGTMSQVQGSANDPIFLLHHAFVDSIFEQWLRRHRPLQEVYPEANAPIGHNRESYMVPFIPLYRNGDFFISSKDLGYDYSYLQDSDPDSFQDYIKSYLEQASRIWSWLLGAAMVGAVLTALLAGLVSLLCRHKRKQLPEEKQPLLMEKEDYHSLYQSHL

Key:
[1] = T cell IFN-γ ELISA after acid stripping and re-expression; conditions: glycan gained; control: same cells without z-vad-fmk
[2] = cytosolic fraction SDS-PAGE, anti-flag immunoblot; conditions: glycan gained; control: untreated (cycloheximide only)

Protein	other: MHC class I epitope presentation [1]	degradation_or_half_life [2]
B1	decreases	–
B2	no change	–
B3	–	no change
